Laboratory results from doi:10.1101/2020.12.31.425005 (bioRxiv, 2020).

Target: the molecule itself
Test: crystal structure

B1: Haemophilus ducreyi I51M-L72M-YhcB cytosolic region, residues 31-128 (domain or fragment)
chain: MKGNIQQQIQLKSELASAEAKMEEQKQQLERHFEQSANLLENMAEDYKKLYTHFAQNSEQLLPESNQVEFFKRLKNHANGDEDNQPRDYSDGSSGLLKS
modifications: selenomethionine-labeled (Met-51, Met-72)
- stoichiometry N: 4
